What was measured:
[1] = molecular target: T1, CD200R1 on HH (CRL-2105) cells (Homo sapiens, UniProt Q8TD46); assay: Cell binding assay (flow cytometry), HH cells; type: cell-based
T1 construct: HH (CRL-2105) cells, which endogenously express CD200R1; host or cells: HH (CRL-2105) cells
T1 sequence (Q8TD46 25-348): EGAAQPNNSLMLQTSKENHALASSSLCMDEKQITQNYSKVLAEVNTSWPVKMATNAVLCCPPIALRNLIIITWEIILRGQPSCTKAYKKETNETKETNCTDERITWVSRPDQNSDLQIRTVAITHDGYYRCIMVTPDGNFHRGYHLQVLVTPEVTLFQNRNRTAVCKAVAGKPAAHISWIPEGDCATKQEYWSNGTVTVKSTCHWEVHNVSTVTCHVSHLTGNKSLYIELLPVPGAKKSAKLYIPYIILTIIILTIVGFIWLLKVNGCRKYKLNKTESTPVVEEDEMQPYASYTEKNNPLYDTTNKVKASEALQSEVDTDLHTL
Protocol: The binding ability of the antibodies identified using unique multifaceted antibody discovery technology was identified in HH (CRL-2105) cells, which endogenously express CD200R1, and Jurkat-CD200R1 cells (Source: DiscoverX), which were generated by intranuclear injection of CD200R1 cDNA.
HH and Jurkat-CD200R1 cells were maintained in RPMI 1640 medium supplemented with 10% heat-inactivated FBS and 1% Penicillin/Streptomycin (P/S). The cells were washed by centrifugation at 130 g for 5 minutes. The cells were seeded onto 96-well round-bottom plates (SPL, #34296) at a density of 1×10^5 cells/well in Flow cytometry staining buffer (Invitrogen, #00-4222-26) or FACS buffer. The cells were treated with all 16 substances and the positive control LY3454738 (US 2020/0087395, I-4P, at Eli Lilly) a concentration of 500 nM in the IgG1 form. After incubation for 1 hour at 4° C., the cells were treated with Alexa-647 Goat anti-human IgG (H+L) cross-adsorbed secondary antibody (Invitrogen, #A21445) and incubated at 4° C. for an additional 30 minutes. […]
Cell-binding ability was determined in the same manner as in Example 12. For the six active substances primarily selected in Example 12, the isotype was changed to IgG4 or the LALAPG gene was mutated, and binding activity was determined in the two cell lines mentioned above.
Binding ability was determined in HH, an endogenous T cell line with high CD200R1 expression, and two additional overexpressing cell lines: U937-CD200R overexpressing cells, generated by intranuclear injection of human CD200R1 CDNA into the monocytic cell line U937 (CRL-1593.2) (Source: UMC Utrecht, the Netherlands) and Jurkat-CD200R overexpressing cells, were also cells engineered using a similar method.
All cell lines were maintained in RPMI 1640 medium supplemented with 10% heat-inactivated FBS and 1% penicillin/streptomycin (P/S) and cell binding was determined in the same manner as in Example 12. […]
Specific binding ability was determined using P001009 WT and antibody-optimized mutants, P001009v1, P001009v2, P001009v3, and P001009v4. […]

[2] = test system: Th1/Th2 cytokines in nasal polyp patient specimens; assay: Ex vivo cytokine inhibition in nasal polyp patient specimens (CBA); type: cell-based, human; settings: antibody drugs 100 nM; three DUPIXENT-resistant samples of 10; Th2 cytokines IL-5, IL-4
Protocol: The specimens were finely chopped and minced, and then additionally processed twice using the m_lung_02 protocol on a gentleMACS (Miltenyi Biotec) to obtain tissue fragments. After centrifugation at 1500 rpm for 3 minutes to ensure that all tissues formed a pellet, RPMI media+10% FBS was aliquoted in the pellet at a 1:3 ratio. The pellet was thoroughly mixed with the medium and dispensed into a 96-well u-bottom plate, 100 μl per well, in triplicate for each drug. To establish the screening assay, results were obtained first using dexamethasone (a steroid-based positive control drug), followed by treatment with the anti-CD200R1 antibody (P001009v1) and other drugs used for the corresponding disease. All antibody-based drugs were treated at 100 nM, while steroid drugs such as dexamethasone were treated at 20 μM.
After drug treatment, the cells were incubated at 37° C. for 1 hour. To increase overall cytokine levels, 4 μl of a 10-fold diluted cell stimulation cocktail 500× (Invitrogen #00-4970-03) was added on each well and mixed. After reaction for 24 hours at 37° C., the supernatant was collected by centrifugation. Using the human Th1/Th2 cytokine cytometric bead array (CBA) kit (BD, #550749), cytokine levels in the supernatant were measured and the degree of drug responsiveness of each sample was determined.

[3] = test system: monkey CD200R1; assay: ELISA binding to monkey CD200R1; settings: Example 14
Source text: Therefore, the LC D51 and LC D92 sequences were not substituted during the optimization process. However, since LC N30 and LC N31 can play an important role in the specific binding of antibodies as paratopes, the sequences were substituted and optimized. Through rational design, LC S52 and LC S94 were substituted with K and R, respectively, to derive P001009v1, and LC S52 and LC D93 were substituted with K and R, respectively, to derive P001009v2. Further, P001009v3, in which LC N30 was substituted with S, and P001009v4, in which LC N31 was substituted with K, were derived and produced, and the binding ability to human, mouse, and monkey CD200R1 was analyzed by ELISA (FIG. 15). […] Both […] and variants thereof had very weak binding ability to mouse CD200R1 at concentrations up to 300 nM.

| Molecule | cell binding ability, IgG4 or LALAPG mutants ([1]; HH cells) | cytokine suppression in nasal polyp patient samples [2] | binding ability to monkey CD200R1 compared to parent [3] | binding ability to HH cell line ([1]; serial dilution from 100 nM) |
| --- | --- | --- | --- | --- |
| P001009: phage display anti-CD200R1 clone; VH SEQ ID NO: 79, VL SEQ ID NO: 94 (antibody, V domains shown) VH: EVQLLESGGGLVQPGGSLRLSCAASGFTFSSYDMSWVRQAPGKGLEWVSWISHGGGSIYYADSVKGRFTISRDNSKNTLYLQMNSLRAEDTAVYYCARDAPAYSAPLFDYWGQGTLVTVSS VL: QSVLTQPPSASGTPGQRVTISCSGSSSNIGNNAVNWYQQLPGTAPKLLIYYDSNRPSGVPDRFSGSKSGTSASLAISGLRSEDEADYYCAAWDDSLSGYVFGGGTKLTVL | highest efficacy |  |  |  |
| P001009v1: P001009 variant, LC S52 and LC S94 substituted with K and R; VH SEQ ID NO: 79 (antibody, V domains shown) VH: EVQLLESGGGLVQPGGSLRLSCAASGFTFSSYDMSWVRQAPGKGLEWVSWISHGGGSIYYADSVKGRFTISRDNSKNTLYLQMNSLRAEDTAVYYCARDAPAYSAPLFDYWGQGTLVTVSS VL: QSVLTQPPSASGTPGQRVTISCSGSSSNIGNNAVNWYQQLPGTAPKLLIYYDKNRPSGVPDRFSGSKSGTSASLAISGLRSEDEADYYCAAWDDRLSGYVFGGGTKLTVL |  | superior cytokine suppression | improved | exhibited binding ability |
